The source of these data is the supplement of paper PMC11316812.

± gives the standard deviation of the averaged measurements.

The subject of one data set is MCF7. Description: percentage of EdU-negative (G0-arrested) nuclei per well, 72 h; higher = more G0 arrest. Conditions: reference: sequence is the full UniProt precursor, the tested protein was the secreted form or ectodomain.
Another data set has as its system hTERT-HMEC. The data set is described as above. As to conditions: reference: sequence is the full UniProt precursor, the tested protein was the secreted form or ectodomain.
The mark [1] stands for this setting: protein concentration 0.0294675 µM.
The mark [2] stands for this setting: protein concentration 0.294675 µM.
Setting [3] is: protein concentration 0.0125714 µM.
Where [4] appears, read: protein concentration 0.125714 µM.
Setting [5] is: protein concentration 0.0228571 µM.
The mark [6] stands for this setting: protein concentration 0.228571 µM.
The mark [7] stands for this setting: protein concentration 0.02775 µM.
The mark [8] stands for this setting: protein concentration 0.2775 µM.
[9] abbreviates: protein concentration 0.03125 µM.
The mark [10] stands for this setting: protein concentration 0.3125 µM.
The mark [11] stands for this setting: protein concentration 0.018845 µM.
[12] abbreviates: protein concentration 0.18845 µM.
Setting [13] is: protein concentration 0.012475 µM.
Setting [14] is: protein concentration 0.12475 µM.
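Also: secreted proteins added to cultured cells, EdU pulse at the end, nuclei found by Hoechst imaging, EdU status from nuclear versus surrounding ring intensity ratio, PBS as neutral control.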

As to “MRAWIFFLLCLAGRALAAPQQEALPDETEVVEETVAEVTEVSVGANPVQVEVGEFDDGAEETEEEVVAENPCQNHHCKHGKVCELDENNTPMCVCQDPTSCPAPIGEFEKVCSNDNKTFDSSCHFFATKCTLEGTKKGHKLHLDYIGPCKYIPPCLDSELTEFPLRMRDWLKNVLVTLYERDEDNNLLTEKQKLRVKKIHENEKRLEAGDHPVELLARDFEKNYNMYIFPVHWQFGQLDQHPIDGYLSHTELAPLRAPLIPMEHCTTRFFETCDLDNDKYIALDEWAGCFGIKQKDIDKDLVI”, the “percentage of EdU-negative” value in the data set with MCF7 (setting [1]) is 26.73 ± 0.018%; with MCF7 (setting [2]), 24.8 ± 0.39%; in the data set with hTERT-HMEC (setting [1]), 4.83 ± 0.18%; in the data set with hTERT-HMEC (setting [2]), 5.23 ± 0.79%.

For the sequence “MRENMARGPCNAPRWASLMVLVAIGTAVTAAVNPGVVVRISQKGLDYASQQGTAALQKELKRIKIPDYSDSFKIKHLGKGHYSFYSMDIREFQLPSSQISMVPNVGLKFSISNANIKISGKWKAQKRFLKMSGNFDLSIEGMSISADLKLGSNPTSGKPTITCSSCSSHINSVHVHISKSKVGWLIQLFHKKIESALRNKMNSQVCEKVTNSVSSELQPYFQTLPVMTKIDSVAGINYGLVAPPATTAETLDVQMKGEFYSENHHNPPPFAPPVMEFPAAHDRMVYLGLSDYFFNTAGLVYQEAGVLKMTLRDDMIPKESKFRLTTKFFGTFLPEVAKKFPNMKIQIHVSASTPPHLSVQPTGLTFYPAVDVQAFAVLPNSSLASLFLIGMHTTGSMEVSAESNRLVGELKLDRLLLELKHSNIGPFPVELLQDIMNYIVPILVLPRVNEKLQKGFPLPTPARVQLYNVVLQPHQNFLLFGADVVYK”, the “percentage of EdU-negative” value in the data set on MCF7 (setting [3]) turned out to be 24.5 ± 2.8%; in the data set with MCF7 (setting [4]), 29.1 ± 5%; with hTERT-HMEC (setting [3]), 6.02 ± 1.5%; with hTERT-HMEC (setting [4]), 35.1 ± 4%.

On to “MRERPRLGEDSSLISLFLQVVAFLAMVMGTHTYSHWPSCCPSKGQDTSEELLRWSTVPVPPLEPARPNRHPESCRASEDGPLNSRAISPWRYELDRDLNRLPQDLYHARCLCPHCVSLQTGSHMDPRGNSELLYHNQTVFYRRPCHGEKGTHKGYCLERRLYRVSLACVCVRPRVMG [Q9H293]”, for which the “percentage of EdU-negative” value in the data set with MCF7 (setting [5]) came out at 24 ± 0.49%; in the data set on MCF7 (setting [6]) it was 36.9 ± 1.7%; in the data set with hTERT-HMEC (setting [5]), 5.07 ± 0.33%; in the data set with hTERT-HMEC (setting [6]), 5.25 ± 1%.

As for “MRFFCARCCSFGPEMPAVQLLLLACLVWDVGARTAQLRKANDQSGRCQYTFSVASPNESSCPEQSQAMSVIHNLQRDSSTQRLDLEATKARLSSLESLLHQLTLDQAARPQETQEGLQRELGTLRRERDQLETQTRELETAYSNLLRDKSVLEEEKKRLRQENENLARRLESSSQEVARLRRGQCPQTRDTARAVPPGSREVSTWNLDTLAFQELKSELTEVPASRILKESPSGYLRSGEGDTGCGELVWVGEPLTLRTAETITGKYGVWMRDPKPTYPYTQETTWRIDTVGTDVRQVFEYDLISQFMQGYPSKVHILPRPLESTGAVVYSGSLYFQGAESRTVIRYELNTETVKAEKEIPGAGYHGQFPYSWGGYTDIDLAVDEAGLWVIYSTDEAKGAIVLSKLNPENLELEQTWETNIRKQSVANAFIICGTLYTVSSYTSADATVNFAYDTGTGISKTLTIPFKNRYKYSSMIDYNPLEKKLFAWDNLNMVTYDIKLSKM”, the “percentage of EdU-negative” value was determined as 23.1 ± 3.6% with MCF7 (setting [7]), 22.8 ± 0.49% with MCF7 (setting [8]), 5.22 ± 0.79% in the data set with hTERT-HMEC (setting [7]) and 5.83 ± 0.68% in the data set with hTERT-HMEC (setting [8]).

On to “MRFLAATFLLLALSTAAQAEPVQFKDCGSVDGVIKEVNVSPCPTQPCQLSKGQSYSVNVTFTSNIQSKSSKAVVHGILMGVPVPFPIPEPDGCKSGINCPIQKDKTYSYLNKLPVKSEYPSIKLVVEWQLQDDKNQSLFCWEIPVQIVSHL”, for which the “percentage of EdU-negative” value was 25.6 ± 0.29% with MCF7 (setting [9]), 27.1 ± 2% with MCF7 (setting [10]), 4.48 ± 0.41% in the data set on hTERT-HMEC (setting [9]) and 5.49 ± 0.12% in the data set with hTERT-HMEC (setting [10]).

As for “MRGAARAAWGRAGQPWPRPPAPGPPPPPLPLLLLLLAGLLGGAGAQYSSDRCSWKGSGLTHEAHRKEVEQVYLRCAAGAVEWMYPTGALIVNLRPNTFSPARHLTVCIRSFTDSSGANIYLEKTGELRLLVPDGDGRPGRVQCFGLEQGGLFVEATPQQDIGRRTTGFQYELVRRHRASDLHELSAPCRPCSDTEVLLAVCTSDFAVRGSIQQVTHEPERQDSAIHLRVSRLYRQKSRVFEPVPEGDGHWQGRVRTLLECGVRPGHGDFLFTGHMHFGEARLGCAPRFKDFQRMYRDAQERGLNPCEVGTD [Q641Q3]”, the “percentage of EdU-negative” value in the data set on MCF7 (setting [11]) was 26.1 ± 2.3%; in the data set on MCF7 (setting [12]) it was 35.6 ± 1.1%; with hTERT-HMEC (setting [11]) it was 5.45 ± 1.1%; in the data set with hTERT-HMEC (setting [12]), 18.2 ± 6%.

Take “MRGANAWAPLCLLLAAATQLSRQQSPERPVFTCGGILTGESGFIGSEGFPGVYPPNSKCTWKITVPEGKVVVLNFRFIDLESDNLCRYDFVDVYNGHANGQRIGRFCGTFRPGALVSSGNKMMVQMISDANTAGNGFMAMFSAAEPNERGDQYCGGLLDRPSGSFKTPNWPDRDYPAGVTCVWHIVAPKNQLIELKFEKFDVERDNYCRYDYVAVFNGGEVNDARRIGKYCGDSPPAPIVSERNELLIQFLSDLSLTADGFIGHYIFRPKKLPTTTEQPVTTTFPVTTGLKPTVALCQQKCRRTGTLEGNYCSSDFVLAGTVITTITRDGSLHATVSIINIYKEGNLAIQQAGKNMSARLTVVCKQCPLLRRGLNYIIMGQVGEDGRGKIMPNSFIMMFKTKNQKLLDALKNKQC [Q9UKZ9]”: the “percentage of EdU-negative” value with MCF7 (setting [13]) was 25.27 ± 0.085%; in the data set on MCF7 (setting [14]), 25.1 ± 1.3%; in the data set with hTERT-HMEC (setting [13]) it was 4.6 ± 0.68%; with hTERT-HMEC (setting [14]), 7.45 ± 0.19%.
